In PMC9952896:

How the values were obtained:
HSP-CGFP [GFP: P42212] = assay: split reporter (BiFC, NanoBiT); split-GFP reassembly competition assay, GFP variant sg100: E. coli T7 cells co-transformed with the NGFP plasmid, the CGFP plasmid and p17Tet with a competitor or p17Tet-stop; 0.5 mM IPTG and 2% arabinose, overnight to 72 h at 17 °C; fluorescence (arbitrary units) divided by OD600 of cells resuspended in PBS, triplicates
[1] = target: XD-CGFP (not His-tagged) (measles virus | not stated) (UniProt P03422); assay: as above
[2] = target: HSP (hsp70) (Homo sapiens) (UniProt P0DMV8); settings: cited from earlier work
Chain of UniProt P0DMV8 (P0DMV8 2-641): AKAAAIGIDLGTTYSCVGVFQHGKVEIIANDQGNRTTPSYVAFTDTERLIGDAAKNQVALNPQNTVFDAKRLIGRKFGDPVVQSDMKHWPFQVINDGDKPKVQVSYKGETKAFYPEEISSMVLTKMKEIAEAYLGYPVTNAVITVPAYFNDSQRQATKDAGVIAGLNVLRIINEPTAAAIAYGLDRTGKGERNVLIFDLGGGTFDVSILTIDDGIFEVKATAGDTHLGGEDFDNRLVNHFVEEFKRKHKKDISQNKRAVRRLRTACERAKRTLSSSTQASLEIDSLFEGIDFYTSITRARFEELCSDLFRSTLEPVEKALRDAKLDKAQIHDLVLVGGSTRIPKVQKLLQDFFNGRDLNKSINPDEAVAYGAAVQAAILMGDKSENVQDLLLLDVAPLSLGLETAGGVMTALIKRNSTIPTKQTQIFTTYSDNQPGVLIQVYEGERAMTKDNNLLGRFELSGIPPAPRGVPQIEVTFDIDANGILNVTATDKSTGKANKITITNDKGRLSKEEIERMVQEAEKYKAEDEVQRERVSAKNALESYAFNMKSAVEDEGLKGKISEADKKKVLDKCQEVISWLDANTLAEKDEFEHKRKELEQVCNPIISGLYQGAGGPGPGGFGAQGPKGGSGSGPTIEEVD

For “NGFP-471 (His-NGFP-471) (from UniProt P42212 1-157; P04851 471-525) (domain or fragment)”, the fluorescence signal (fluorescence/OD600) (arbitrary units/OD600) (HSP-CGFP [GFP: P42212]) was 300.
For “NGFP alone (His-NGFP, from the construct NGFP-stop) (from UniProt P42212 1-157) (domain or fragment)”, the fluorescence to OD600 ratio (arbitrary units/OD600) (HSP-CGFP [GFP: P42212]) was 200 and the fluorescence to OD600 ratio (arbitrary units/OD600) [1] was 200.
In the case of “Nucleoprotein NTAIL NTAIL (from UniProt P35972)”, the Kd [2] is listed as 70 µM.
